In PMC11754618 (2025):
Residue numbers refer to the chain shown, from its start. Each block holds one binder with its values, some of them ahead of it.

What was measured:
His6-Mm.USP18 (46-368) = biological target: T1, His6-Mm.USP18 (46-368) (mouse, UniProt Q9WTV6 46-368); assay: SPR
T1 chain: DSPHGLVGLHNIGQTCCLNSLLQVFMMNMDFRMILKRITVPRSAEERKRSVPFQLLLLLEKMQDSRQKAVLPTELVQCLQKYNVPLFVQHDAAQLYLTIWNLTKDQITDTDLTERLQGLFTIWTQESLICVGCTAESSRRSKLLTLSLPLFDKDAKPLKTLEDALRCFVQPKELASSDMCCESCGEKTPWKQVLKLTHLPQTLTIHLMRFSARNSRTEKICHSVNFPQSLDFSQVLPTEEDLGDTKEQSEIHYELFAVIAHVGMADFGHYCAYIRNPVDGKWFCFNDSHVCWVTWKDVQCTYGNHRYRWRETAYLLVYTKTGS

His6-Hs.USP18 (16-372) = biological target: T2, His6-Hs.USP18 (16-372) (human, UniProt Q9UMW8 16-372); assay: SPR
T2 chain: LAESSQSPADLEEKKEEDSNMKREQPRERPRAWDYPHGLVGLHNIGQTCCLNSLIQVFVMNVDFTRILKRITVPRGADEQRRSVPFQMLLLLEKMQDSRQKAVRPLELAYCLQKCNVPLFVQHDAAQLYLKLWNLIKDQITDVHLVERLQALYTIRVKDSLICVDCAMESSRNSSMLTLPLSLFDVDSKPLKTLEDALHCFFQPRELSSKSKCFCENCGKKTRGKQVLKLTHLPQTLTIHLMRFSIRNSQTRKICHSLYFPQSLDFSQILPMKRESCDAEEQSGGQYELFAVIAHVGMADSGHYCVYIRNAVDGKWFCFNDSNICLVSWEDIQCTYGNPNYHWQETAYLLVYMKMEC

Kd (His6-Mm.USP18 (46-368)): 1750 nM
Kd (His6-Hs.USP18 (16-372)): 1900 nM
B1: Ac-mISG15CTD[R153Phe(guan)]-OH (domain or fragment)
chain: LSILVRNERGHSNIYEVFLTQTVDTLKKKVSQREQVHEDQFWLSFEGRPMEDKELLGEYGLKPQSTVIKHLRLFG
modifications: N-terminal acetyl; Phe(guan) (guanidino-phenylalanine) at 153

Kd (His6-Mm.USP18 (46-368)): 4500 nM
Kd (His6-Hs.USP18 (16-372)): 1200 nM
B2: Ac-mISG15CTD[R153Agb]-OH (domain or fragment)
chain: B1 chain with F74X
modifications: N-terminal acetyl; Agb (2-amino-4-guanidino-butyric acid) at 153

Kd (His6-Mm.USP18 (46-368)): 2500 nM
Kd (His6-Hs.USP18 (16-372)): 4300 nM
B3: Ac-mISG15CTD-OH (wild type) (domain or fragment)
chain: B1 chain with F74R
modifications: N-terminal acetyl
